B1: Peroxisome proliferator-activated receptor delta, residues 71 to 145; numbered along this chain, Q03181 (parent)
chain: NMECRVCGDKASGFHYGVHACEGCKGFFRRTIRMKLEYEKCERSCKIQKKNRNKCQYCRFQKCLALGMSHNAIRF

Variants of: B1
Test: abundance fitness (aPCA) (normalised: wild type 0, dead -1); higher = more abundant; growth selection in yeast, the domain comes from the species named
Settings: Homo sapiens

Abundance fitness of substitutions, site by site:
R43: N 0.223 | T -0.161 | S -0.045 | M -0.043 | P -0.168 | V -0.158 | W -0.252 | D -0.149 | E 0.013 | A -0.064 | I -0.349 | H -0.07 | G -0.085 | F 0.082 | K 0.078 | Q 0.111 | C -0.138
Y38: T -0.607 | C -0.741 | V -0.74 | W -0.397 | L -0.544 | M -0.631 | H -0.718 | R -0.846 | P -0.758 | N -0.72 | Q -1.02 | A -0.738 | S -0.868 | K -0.776 | E -0.803 | I -0.483
F27: G -0.789 | P -0.876 | D -0.41 | Q -0.958 | K -0.772 | Y -1.06 | M -1.02 | E -0.85 | I -0.994 | L -0.784 | W -0.787 | C -0.719 | R -0.684 | V -0.951 | A -0.934
R29: D 0.131 | T 0.197 | C -0.009 | L 0.139 | A 0.191 | P -0.901 | N 0.085 | Q 0.168 | W 0.164 | I 0.132 | V 0.105 | Y -0.089 | E 0.258 | F 0.142 | G 0.09 | K 0.026
R30: D 0.026 | V -0.188 | T -0.07 | A -0.359 | M -0.176 | E 0.074 | N 0.021 | K -0.07 | Y -0.056 | I -0.31 | P -1.05 | C -0.275 | S -0.088 | H -0.067 | G -0.335
C41: F -0.398 | E -0.729 | Y -0.816 | G -0.684 | W -0.774 | P -0.093 | V -0.645 | L -1.27 | R -0.694 | A -1 | S -0.945 | H -0.361
G26: D 0.114 | F -0.125 | Y 0.084 | T 0.039 | A 0.068 | P -1.02 | H 0.221 | C -0.139 | V -0.004 | E 0.127 | W -0.174 | M -0.09 | N 0.055 | R -0.099 | I 0.025
C24: T -0.723 | H -0.15 | D -0.306 | A -0.626 | S -0.809 | Q -0.912 | R -0.823 | L -0.753 | V -1.06 | K -0.6 | Y -0.747 | I -0.464 | E -0.924 | N -0.648 | F -0.364 | M -0.648
T31: F -0.406 | E -0.89 | C -0.726 | V -0.394 | M -0.521 | I -0.49 | S -0.043 | K -0.917 | P -1.16 | R -0.778 | A -0.288 | D -0.663 | N -0.967 | Y -0.46 | Q -0.792 | W -0.588 | G -0.717 | L -0.985
E39: N -0.222 | L -0.229 | Y -0.447 | A -0.057 | S -0.094 | R -0.224 | V -0.061 | Q -0.082 | W -0.518 | H -0.336 | C -0.586 | M -0.167 | I -0.191 | D -0.063 | K 0.017 | P 0.072 | T -0.052 | G -0.221
E42: K -0.209 | Q -0.104 | N -0.335 | A -0.179 | C -0.394 | V -0.074 | T -0.117 | I -0.304 | R -0.367 | G -0.135 | L -0.195 | P -0.25 | Y -0.093 | F -0.139 | M -0.051 | S -0.117 | D -0.16 | H -0.195 | W -0.295
G23: Y 0.021
E37: H -0.067 | D -0.034 | M -0.164 | F -0.227 | N 0.014 | I -0.069 | P -0.559 | T -0.121 | C 0.011 | L -0.16 | R -0.069 | W -0.311 | Y -0.326 | K -0.038 | G -0.319 | A -0.13 | V -0.042
K35: C -0.015 | T -0.272 | E 0.063 | N 0.04 | Y -0.456 | I -0.655 | S 0.013 | D -0.028 | V -0.33 | Q 0.093 | F -0.339 | R -0.026 | L -0.495 | W -0.535 | H -0.169 | A -0.054 | M -0.079 | P -0.509
R33: S 0.168 | T 0.129 | C 0.11 | D 0.177 | Y -0.019 | F 0.208 | P -0.972 | L 0.089 | E 0.18 | M 0.088 | N 0.082 | V 0.072 | Q 0.058 | H -0.091 | G -0.038 | W -0.108
K25: F -0.108 | E 0.142 | Q -0.036 | I 0.061 | T 0.094 | C -0.014 | D -0.048 | G 0.178 | V 0.109 | H -0.19 | S 0.105 | A 0.122 | W 0.01 | L 0.112 | R -0.003 | Y 0.114 | P -0.878 | M 0.188
K40: P -0.117 | D -0.408 | Y -0.088 | F 0.02 | R -0.095 | S -0.255 | T -0.154 | V 0.026 | G -0.472 | E -0.113 | W -0.348 | I 0.061 | Q -0.05 | N -0.225 | L -0.077 | M -0.09 | H 0.08 | C -0.216
S44: A -0.045 | D 0.055 | E 0.139 | C -0.164
F28: N -0.586 | Y -0.159 | T -0.909 | K -0.758 | P -0.406 | S -0.625 | H -0.936 | A -0.603 | C -0.882 | R -0.823 | E -0.667 | D -0.845 | W -0.203 | I -1.23 | V -0.538 | M -0.156 | Q -0.808 | L -0.842
M34: Q 0.136 | R -0.161 | E 0.118 | G -0.033 | I -0.817 | S -0.097 | V -0.577 | H 0.047 | C -0.032 | W -0.063 | P -0.602 | T -0.36 | L 0.006 | D 0.192 | K -0.074 | A -0.112
I32: P -0.869 | D -0.5 | A -0.221 | G -0.677 | C -0.234 | N -0.617 | F -0.185 | M -0.142 | E -0.531 | L -0.095 | H -0.405 | Q -0.365 | R -0.514 | Y -0.133 | S -0.464 | T -0.107
L36: K -0.165 | A -0.135 | Y -0.047 | Q -0.222 | S -0.235 | H -0.151 | T -0.139 | F -0.162 | E -0.109 | G -0.224 | M -0.05 | C -0.13 | R -0.26 | P -0.374 | D -0.461
